B1: Twister Ribozyme (parent)
chain: AACACUGCCAAUGCCGGUCCCAAGCCCGGAUAAAAGUGGAGGGGGCGG

Variants of: B1
Test: self-cleavage, relative activity (ratio to wild type); higher = more cleavage; co-transcriptional

In order of falling self-cleavage:
1. G28A A30G  0.938
2. G28A A30C  0.935
3. C27U  0.876
4. G28A A30U  0.844
5. C25U G29U  0.824
6. C25U A35C  0.779
7. C25U G29A  0.734
8. C25U G28A  0.713
9. C27U A30C  0.701
10. C25U G44C  0.692
11. C27A  0.672
12. C27A C46U  0.639
13. C25U G29C  0.635
14. C26A A35C  0.572
15. C25G U31A  0.482
16. C26A G28C  0.48
17. C27A C46G  0.466
18. C27U U37A  0.444
19. C26U U31A  0.432
20. C27A G28A  0.423
21. C27A C46A  0.416
22. C26U A32G  0.411
23. C25G U31C  0.404
24. C26G C46U  0.361
25. C26U A32U  0.34
26. C27A G45A  0.334
27. C26U G48U  0.32
28. C26G A35C  0.319
29. C26U G48C  0.301
30. C26G A30G  0.214
31. C27A G45U  0.207
32. C26G A32U  0.193
33. C26U G48A  0.185
34. C26A A40G  0.182
35. C25G U37A  0.166
36. C26G A35G  0.16
37. C25U G36C  0.15
38. C27A A40G  0.145
39. C25G G45U  0.145
40. C25G G45C  0.143
41. C27A A40U  0.142
42. C26G G43C  0.141
43. C27A A34G  0.139
44. C25A C27U  0.136
45. C26U G36U  0.133
46. C25G G45A  0.132
47. G24U U31C  0.13
48. G24U U31G  0.13
49. C26G G43A  0.128
50. G24U G48C  0.127
51. C26G A40G  0.127
52. C26A G28U  0.114
53. C26G G48A  0.107
54. C25A G48A  0.106
55. G24U C27A  0.106
56. C25G U37G  0.104
57. C25A C27G  0.104
58. C27G U37C  0.102
59. G24U G38A  0.0987
60. C27G U37G  0.0978
61. C26G G41C  0.0955
62. G24U G42U  0.0953
63. C25G G28C  0.0925
64. C27A A34C  0.0922
65. C27G G47A  0.0917
66. C27G G47U  0.0917
67. C26G G36A  0.0913
68. G24U A40U  0.0893
69. G24U U37A  0.0892
70. C25A A30U  0.0882
71. C27G  0.0872
72. C25A G48U  0.0867
73. C25A G38U  0.0853
74. C26G G41U  0.0825
75. G24U G38U  0.0819
76. G24U C27G  0.0792
77. C26U G36A  0.0777
78. C25A G42U  0.0765
79. C27G A32G  0.0742
80. C27G U31C  0.072
81. C26G G36U  0.0699
82. C25A G42A  0.0675
83. C25A A34C  0.0515
84. C27G G47C  0.0485

Source: the RNAGym collection of RNA variant scans (doi:10.7554/elife.80360)
